According to US20170008943A1 (Novo Nordisk, published 2017):
*1 amine or outer side, *2 acyl side, *3 side chain or, on linkers, in order; H or OH if unused. Side-chain parts run from the residue outwards. [ ]: non-standard residue; d: D form. The star is where a group is joined. γGlu = O=C(O)[C@H](CCC(=O)[*:2])N[*:1]; Desaminohistidyl = O=C(CCc1c[nH]cn1)*

Experiments:
human glucagon receptor [1] = biological target: T1, human glucagon receptor (human, UniProt P47871 26-477); test: displacement of 125I-glucagon from BHK membranes with human glucagon receptor (SPA), Assay (II)(b)
T1 construct: whole, on cells; Potency assay (I)(b): whole BHK cells (clone pLJ6'-4-25) with CRE luciferase; also called hGlucagonR; hGCGR

human glucagon receptor [2] = biological target: T1, human glucagon receptor; test: cell-based or functional assay

T1 sequence (P47871 26-477): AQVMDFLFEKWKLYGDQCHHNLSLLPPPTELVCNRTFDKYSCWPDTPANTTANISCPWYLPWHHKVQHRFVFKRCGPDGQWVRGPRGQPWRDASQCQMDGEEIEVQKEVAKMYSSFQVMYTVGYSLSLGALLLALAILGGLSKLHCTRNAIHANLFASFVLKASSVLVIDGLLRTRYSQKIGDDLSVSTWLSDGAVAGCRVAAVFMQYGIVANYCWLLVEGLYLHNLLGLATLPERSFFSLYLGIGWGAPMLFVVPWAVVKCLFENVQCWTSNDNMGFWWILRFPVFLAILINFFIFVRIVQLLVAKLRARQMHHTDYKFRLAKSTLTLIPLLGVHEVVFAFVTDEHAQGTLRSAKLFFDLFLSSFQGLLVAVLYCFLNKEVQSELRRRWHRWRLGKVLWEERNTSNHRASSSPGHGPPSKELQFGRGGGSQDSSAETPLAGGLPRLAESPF

Row | Binder | IC50 (human glucagon receptor [1]) [nM] | EC50 hGlucagonR (pM), CRE luciferase reporter in BHK cells (human glucagon receptor [2]) [pM]
1 | [Desaminohistidyl]SHGTFTSDYSKYLEK([γGlu-γGlu-γGlu-γGlu-Ac])RRAQEFVQWLLST-OH (SMILES CC(=O)N[C@@H](CCC(=O)N[C@@H](CCC(=O)N[C@@H](CCC(=O)N[C@@H](CCC(=O)NCCCC[C@H](NC(=O)[C@H](CCC(=O)O)NC(=O)[C@H](CC(C)C)NC(=O)[C@H](Cc1ccc(O)cc1)NC(=O)[C@H](CCCCN)NC(=O)[C@H](CO)NC(=O)[C@H](Cc1ccc(O)cc1)NC(=O)[C@H](CC(=O)O)NC(=O)[C@H](CO)NC(=O)[C@@H](NC(=O)[C@H](Cc1ccccc1)NC(=O)[C@@H](NC(=O)CNC(=O)[C@H](Cc1c[nH]cn1)NC(=O)[C@H](CO)NC(=O)CCc1c[nH]cn1)[C@@H](C)O)[C@@H](C)O)C(=O)N[C@@H](CCCNC(=N)N)C(=O)N[C@@H](CCCNC(=N)N)C(=O)N[C@@H](C)C(=O)N[C@@H](CCC(N)=O)C(=O)N[C@@H](CCC(=O)O)C(=O)N[C@@H](Cc1ccccc1)C(=O)N[C@H](C(=O)N[C@@H](CCC(N)=O)C(=O)N[C@@H](Cc1c[nH]c2ccccc12)C(=O)N[C@@H](CC(C)C)C(=O)N[C@@H](CC(C)C)C(=O)N[C@@H](CO)C(=O)N[C@H](C(=O)O)[C@@H](C)O)C(C)C)C(=O)O)C(=O)O)C(=O)O)C(=O)O, Imp written X under substitutions) | 24.4 | 105
2 | [Desaminohistidyl]SHGTFTSDYSKYLDLRRAQEFVK([γGlu-γGlu-γGlu-γGlu-Ac])WLLST-OH (SMILES CC(=O)N[C@@H](CCC(=O)N[C@@H](CCC(=O)N[C@@H](CCC(=O)N[C@@H](CCC(=O)NCCCC[C@H](NC(=O)[C@@H](NC(=O)[C@H](Cc1ccccc1)NC(=O)[C@H](CCC(=O)O)NC(=O)[C@H](CCC(N)=O)NC(=O)[C@H](C)NC(=O)[C@H](CCCNC(=N)N)NC(=O)[C@H](CCCNC(=N)N)NC(=O)[C@H](CC(C)C)NC(=O)[C@H](CC(=O)O)NC(=O)[C@H](CC(C)C)NC(=O)[C@H](Cc1ccc(O)cc1)NC(=O)[C@H](CCCCN)NC(=O)[C@H](CO)NC(=O)[C@H](Cc1ccc(O)cc1)NC(=O)[C@H](CC(=O)O)NC(=O)[C@H](CO)NC(=O)[C@@H](NC(=O)[C@H](Cc1ccccc1)NC(=O)[C@@H](NC(=O)CNC(=O)[C@H](Cc1c[nH]cn1)NC(=O)[C@H](CO)NC(=O)CCc1c[nH]cn1)[C@@H](C)O)[C@@H](C)O)C(C)C)C(=O)N[C@@H](Cc1c[nH]c2ccccc12)C(=O)N[C@@H](CC(C)C)C(=O)N[C@@H](CC(C)C)C(=O)N[C@@H](CO)C(=O)N[C@H](C(=O)O)[C@@H](C)O)C(=O)O)C(=O)O)C(=O)O)C(=O)O, Imp written X under substitutions) | 0.2 | 1
3 | [Desaminohistidyl]SHGTFTSDYSKYLESRRAK([γGlu-γGlu-γGlu-γGlu-Ac])EFVQWLLST-OH (SMILES CC(=O)N[C@@H](CCC(=O)N[C@@H](CCC(=O)N[C@@H](CCC(=O)N[C@@H](CCC(=O)NCCCC[C@H](NC(=O)[C@H](C)NC(=O)[C@H](CCCNC(=N)N)NC(=O)[C@H](CCCNC(=N)N)NC(=O)[C@H](CO)NC(=O)[C@H](CCC(=O)O)NC(=O)[C@H](CC(C)C)NC(=O)[C@H](Cc1ccc(O)cc1)NC(=O)[C@H](CCCCN)NC(=O)[C@H](CO)NC(=O)[C@H](Cc1ccc(O)cc1)NC(=O)[C@H](CC(=O)O)NC(=O)[C@H](CO)NC(=O)[C@@H](NC(=O)[C@H](Cc1ccccc1)NC(=O)[C@@H](NC(=O)CNC(=O)[C@H](Cc1c[nH]cn1)NC(=O)[C@H](CO)NC(=O)CCc1c[nH]cn1)[C@@H](C)O)[C@@H](C)O)C(=O)N[C@@H](CCC(=O)O)C(=O)N[C@@H](Cc1ccccc1)C(=O)N[C@H](C(=O)N[C@@H](CCC(N)=O)C(=O)N[C@@H](Cc1c[nH]c2ccccc12)C(=O)N[C@@H](CC(C)C)C(=O)N[C@@H](CC(C)C)C(=O)N[C@@H](CO)C(=O)N[C@H](C(=O)O)[C@@H](C)O)C(C)C)C(=O)O)C(=O)O)C(=O)O)C(=O)O, Imp written X under substitutions) | 7.6 | 41
4 | [Desaminohistidyl]SHGTFTSDYSKYLDARRAQDFVK([γGlu-γGlu-γGlu-γGlu-Ac])WLLST-OH (SMILES CC(=O)N[C@@H](CCC(=O)N[C@@H](CCC(=O)N[C@@H](CCC(=O)N[C@@H](CCC(=O)NCCCC[C@H](NC(=O)[C@@H](NC(=O)[C@H](Cc1ccccc1)NC(=O)[C@H](CC(=O)O)NC(=O)[C@H](CCC(N)=O)NC(=O)[C@H](C)NC(=O)[C@H](CCCNC(=N)N)NC(=O)[C@H](CCCNC(=N)N)NC(=O)[C@H](C)NC(=O)[C@H](CC(=O)O)NC(=O)[C@H](CC(C)C)NC(=O)[C@H](Cc1ccc(O)cc1)NC(=O)[C@H](CCCCN)NC(=O)[C@H](CO)NC(=O)[C@H](Cc1ccc(O)cc1)NC(=O)[C@H](CC(=O)O)NC(=O)[C@H](CO)NC(=O)[C@@H](NC(=O)[C@H](Cc1ccccc1)NC(=O)[C@@H](NC(=O)CNC(=O)[C@H](Cc1c[nH]cn1)NC(=O)[C@H](CO)NC(=O)CCc1c[nH]cn1)[C@@H](C)O)[C@@H](C)O)C(C)C)C(=O)N[C@@H](Cc1c[nH]c2ccccc12)C(=O)N[C@@H](CC(C)C)C(=O)N[C@@H](CC(C)C)C(=O)N[C@@H](CO)C(=O)N[C@H](C(=O)O)[C@@H](C)O)C(=O)O)C(=O)O)C(=O)O)C(=O)O, Imp written X under substitutions) | 0.9 | 4
5 | [Desaminohistidyl]SHGTFTSDYSKYLESRRAQEFVK([γGlu-γGlu-γGlu-γGlu-Ac])WLLET-OH (SMILES CC(=O)N[C@@H](CCC(=O)N[C@@H](CCC(=O)N[C@@H](CCC(=O)N[C@@H](CCC(=O)NCCCC[C@H](NC(=O)[C@@H](NC(=O)[C@H](Cc1ccccc1)NC(=O)[C@H](CCC(=O)O)NC(=O)[C@H](CCC(N)=O)NC(=O)[C@H](C)NC(=O)[C@H](CCCNC(=N)N)NC(=O)[C@H](CCCNC(=N)N)NC(=O)[C@H](CO)NC(=O)[C@H](CCC(=O)O)NC(=O)[C@H](CC(C)C)NC(=O)[C@H](Cc1ccc(O)cc1)NC(=O)[C@H](CCCCN)NC(=O)[C@H](CO)NC(=O)[C@H](Cc1ccc(O)cc1)NC(=O)[C@H](CC(=O)O)NC(=O)[C@H](CO)NC(=O)[C@@H](NC(=O)[C@H](Cc1ccccc1)NC(=O)[C@@H](NC(=O)CNC(=O)[C@H](Cc1c[nH]cn1)NC(=O)[C@H](CO)NC(=O)CCc1c[nH]cn1)[C@@H](C)O)[C@@H](C)O)C(C)C)C(=O)N[C@@H](Cc1c[nH]c2ccccc12)C(=O)N[C@@H](CC(C)C)C(=O)N[C@@H](CC(C)C)C(=O)N[C@@H](CCC(=O)O)C(=O)N[C@H](C(=O)O)[C@@H](C)O)C(=O)O)C(=O)O)C(=O)O)C(=O)O, Imp written X under substitutions) | 8.7 | 17
6 | [Desaminohistidyl]SHGTFTSDYSKYLESRRAQDFVK([γGlu-γGlu-γGlu-γGlu-Ac])WLLST-OH (SMILES CC(=O)N[C@@H](CCC(=O)N[C@@H](CCC(=O)N[C@@H](CCC(=O)N[C@@H](CCC(=O)NCCCC[C@H](NC(=O)[C@@H](NC(=O)[C@H](Cc1ccccc1)NC(=O)[C@H](CC(=O)O)NC(=O)[C@H](CCC(N)=O)NC(=O)[C@H](C)NC(=O)[C@H](CCCNC(=N)N)NC(=O)[C@H](CCCNC(=N)N)NC(=O)[C@H](CO)NC(=O)[C@H](CCC(=O)O)NC(=O)[C@H](CC(C)C)NC(=O)[C@H](Cc1ccc(O)cc1)NC(=O)[C@H](CCCCN)NC(=O)[C@H](CO)NC(=O)[C@H](Cc1ccc(O)cc1)NC(=O)[C@H](CC(=O)O)NC(=O)[C@H](CO)NC(=O)[C@@H](NC(=O)[C@H](Cc1ccccc1)NC(=O)[C@@H](NC(=O)CNC(=O)[C@H](Cc1c[nH]cn1)NC(=O)[C@H](CO)NC(=O)CCc1c[nH]cn1)[C@@H](C)O)[C@@H](C)O)C(C)C)C(=O)N[C@@H](Cc1c[nH]c2ccccc12)C(=O)N[C@@H](CC(C)C)C(=O)N[C@@H](CC(C)C)C(=O)N[C@@H](CO)C(=O)N[C@H](C(=O)O)[C@@H](C)O)C(=O)O)C(=O)O)C(=O)O)C(=O)O, Imp written X under substitutions) | 6.2 | 12
7 | [Desaminohistidyl]SHGTFTSDYSKYLDLRRAQDFVK([γGlu-γGlu-γGlu-γGlu-Ac])WLLST-OH (SMILES CC(=O)N[C@@H](CCC(=O)N[C@@H](CCC(=O)N[C@@H](CCC(=O)N[C@@H](CCC(=O)NCCCC[C@H](NC(=O)[C@@H](NC(=O)[C@H](Cc1ccccc1)NC(=O)[C@H](CC(=O)O)NC(=O)[C@H](CCC(N)=O)NC(=O)[C@H](C)NC(=O)[C@H](CCCNC(=N)N)NC(=O)[C@H](CCCNC(=N)N)NC(=O)[C@H](CC(C)C)NC(=O)[C@H](CC(=O)O)NC(=O)[C@H](CC(C)C)NC(=O)[C@H](Cc1ccc(O)cc1)NC(=O)[C@H](CCCCN)NC(=O)[C@H](CO)NC(=O)[C@H](Cc1ccc(O)cc1)NC(=O)[C@H](CC(=O)O)NC(=O)[C@H](CO)NC(=O)[C@@H](NC(=O)[C@H](Cc1ccccc1)NC(=O)[C@@H](NC(=O)CNC(=O)[C@H](Cc1c[nH]cn1)NC(=O)[C@H](CO)NC(=O)CCc1c[nH]cn1)[C@@H](C)O)[C@@H](C)O)C(C)C)C(=O)N[C@@H](Cc1c[nH]c2ccccc12)C(=O)N[C@@H](CC(C)C)C(=O)N[C@@H](CC(C)C)C(=O)N[C@@H](CO)C(=O)N[C@H](C(=O)O)[C@@H](C)O)C(=O)O)C(=O)O)C(=O)O)C(=O)O, Imp written X under substitutions) | 0.5 | 3
